This note sets out measurements from PMC6902050, “OXA-830, a Novel Chromosomally Encoded Extended-Spectrum Class D β-Lactamase in Aeromonas simiae” (Frontiers in Microbiology, 2019).

Data set [1] deals with T1, OXA-830 (Aeromonas simiae, UniProt A0A5K1KBV9).
T1 construct: gene blaOXA; predicted signal peptide cleavage 22/23
As to the kind of experiment: inhibition of benzylpenicillin hydrolysis, UV-VIS spectrophotometry. It is filed as biochemical.

For data set [2], the system named is CCN1CCN(C(=O)N[C@@H](C(=O)N[C@@H]2C(=O)N3[C@@H]2SC(C)(C)[C@@H]3C(=O)O)c2ccccc2)C(=O)C1=O. The data set is described as follows: initial hydrolysis rates, UV-VIS spectrophotometry, Michaelis-Menten fit. It is filed as biochemical, Aeromonas simiae. Conditions: 10 mM phosphate buffer pH 7.0, 30°C. The text has this: (§1) initial hydrolysis rates, UV-VIS spectrophotometry, Michaelis-Menten fit on OXA-830

The test system of data set [3] is CC1(C)S[C@@H]2[C@H](NC(=O)[C@H](C(=O)O)c3ccsc3)C(=O)N2[C@H]1C(=O)O. Described as above. Type of data set: biochemical, Aeromonas simiae. As to conditions: 10 mM phosphate buffer pH 7.0, 30°C.
Description: as §1

The test system of data set [4] is Cc1onc(-c2ccccc2Cl)c1C(=O)N[C@@H]1C(=O)N2[C@@H]1SC(C)(C)[C@@H]2C(=O)O. The data set is described as above. Type of data set: biochemical, Aeromonas simiae. Conditions: 10 mM phosphate buffer pH 7.0, 30°C.
Description: as §1

Data set [5] deals with Cc1nnc(SCC2=C(C(=O)O)N3C(=O)[C@@H](NC(=O)Cn4cnnn4)[C@H]3SC2)s1. The data set is described as above. It is filed as biochemical, Aeromonas simiae. As to conditions: 10 mM phosphate buffer pH 7.0, 30°C.
Description: as §1

Data set [6] relates to CC(C)(O/N=C(\C(=O)N[C@@H]1C(=O)N2C(C(=O)[O-])=C(C[n+]3ccccc3)CS[C@H]12)c1csc(N)n1)C(=O)O. The data set is described as above. Type of data set: biochemical, Aeromonas simiae. As to conditions: 10 mM phosphate buffer pH 7.0, 30°C.
Description: as §1

Data set [7] has as its system CC1(C)S[C@@H]2[C@H](NC(=O)Cc3ccccc3)C(=O)N2[C@H]1C(=O)O. The description is as above. It is filed as biochemical, Aeromonas simiae. As to conditions: 10 mM phosphate buffer pH 7.0, 30°C.
Description: as §1

In data set [8] the test system is CO[C@@]1(NC(=O)Cc2cccs2)C(=O)N2C(C(=O)O)=C(COC(N)=O)CS[C@@H]21. The data set is described as above. It is filed as biochemical, Aeromonas simiae. As to conditions: 10 mM phosphate buffer pH 7.0, 30°C.
Description: as §1

The test system of data set [9] is CC1(C)S[C@@H]2[C@H](NC(=O)[C@H](N)c3ccccc3)C(=O)N2[C@H]1C(=O)O. The data set is described as above. Type of data set: biochemical, Aeromonas simiae. Conditions: 10 mM phosphate buffer pH 7.0, 30°C.
Description: as §1

The test system of data set [10] is Cc1onc(-c2ccccc2)c1C(=O)N[C@@H]1C(=O)N2[C@@H]1SC(C)(C)[C@@H]2C(=O)O. The data set is described as above. It is filed as biochemical, Aeromonas simiae. As to conditions: 10 mM phosphate buffer pH 7.0, 30°C.
Description: as §1

T1 sequence (A0A5K1KBV9 entry or part of it): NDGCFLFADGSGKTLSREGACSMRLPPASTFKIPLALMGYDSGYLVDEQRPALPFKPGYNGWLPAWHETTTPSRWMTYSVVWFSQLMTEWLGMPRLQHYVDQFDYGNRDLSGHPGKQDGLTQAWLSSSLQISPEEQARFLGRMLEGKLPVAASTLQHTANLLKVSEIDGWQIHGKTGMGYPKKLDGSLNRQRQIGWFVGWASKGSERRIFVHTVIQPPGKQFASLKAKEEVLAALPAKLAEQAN

The term IC50 denotes the concentration that gives 50% inhibition. A high value points to a need for much substance. Take `O=C(O)[C@H]1/C(=C/CO)O[C@@H]2CC(=O)N21` [clavulanic acid]: the midpoint of inhibition in data set [1], the IC50, lay at 260 ± 20 nM.

Molecule `CC1(C)[C@H](C(=O)O)N2C(=O)C[C@H]2S1(=O)=O` [sulbactam] yielded an IC50 in data set [1] of 50 ± 10 nM.

The molecule `C[C@]1(Cn2ccnn2)[C@H](C(=O)O)N2C(=O)C[C@H]2S1(=O)=O` [tazobactam] returned an IC50 in data set [1] of 70 ± 20 nM.

Broadly, the Km is the substrate concentration at which the rate is half of its maximum. For orientation: kcat means the maximal rate divided by the concentration of active sites. Usually kcat/Km stands for the turnover number divided by the Michaelis constant. Regarding OXA-830 (Aeromonas simiae), the Michaelis constant (Km) came out at 233 µM in [2]; 208 µM in data set [3]; 737 µM in data set [4]; 975 µM in [5]; 61 µM in [6]; 540 µM in data set [7]. Further, the results for the Km in data set [8], in [9] and in data set [10] were 76 µM, 188 µM and 722 µM, respectively. Besides, the kcat in data set [2] is 413 s⁻¹; in data set [3] it was 227 s⁻¹; in data set [4], 1030 s⁻¹; in data set [5], 715 s⁻¹; in data set [6] it was 2.04 s⁻¹; in data set [7], 527 s⁻¹. Also, the kcat in data set [8] is 2.79 s⁻¹; in data set [9], 444 s⁻¹; in data set [10] it was 1240 s⁻¹. Further, the catalytic efficiency (kcat/Km) in data set [2] amounted to 1.77e+06 M⁻¹ s⁻¹; in data set [3], 1.09e+06 M⁻¹ s⁻¹; in data set [4], 1.4e+06 M⁻¹ s⁻¹; in [5] it was 730000 M⁻¹ s⁻¹; in data set [6], 33000 M⁻¹ s⁻¹; in [7] it was 980000 M⁻¹ s⁻¹. For the same molecule, the kcat/Km came to 37000 M⁻¹ s⁻¹ in [8], 2.36e+06 M⁻¹ s⁻¹ in data set [9] and 1.72e+06 M⁻¹ s⁻¹ in [10].
